Assay [1] has as its target T1, human EphA2 (ephrin receptor A2), on cells (human, UniProt P29317 24-976).
T1 construct: Used for HEK293 transfectants, A549 and other human tumor cell lines
Description: flow cytometry binding on A549 cells, MedFI. The procedure: (§1) Surface binding of the antibodies to in vitro grown cell lines was assessed by flow cytometry. Tumor cells were detached from their culture plate using Versene and counted. Cells were staining in BSA-containing buffer with primary antibody for 30 minutes at 4° C. with shaking. Following, cells were washed and stained with secondary PE-labeled antibody for 30 minutes at 4° C. with shaking. Before analysis on an Intellicyt iQue3 scanner, cells were counterstained with DAPI. MedFI values from live, single cells was expressed as fold over isotype control.
Background: In flow cytometry, cells or beads pass a laser one at a time.

The target of assay [2] is T1, human EphA2 (ephrin receptor A2), on …. Description: flow cytometry binding on A549 cells. As for the experimental part: as §1
The target is the same in assay [3]. Description: flow cytometry on A549 cells, EC50 column.
Assay [4] shares this target. Description: flow cytometry on A549 cells. The procedure: as §1
Assay [5] has as its target EphA4 (homologous receptor, screening at Integral Molecular) (UniProt P54764 20-986, limits assumed). Description: screening at Integral Molecular.
The next assay has as its target T2, FcGR1 (human, UniProt P12314 16-374).
T2 construct: whole, on cells; An Fc receptor
Description: flow cytometry, 6,000 human membrane proteins expressed on the surface of HEK293 cells.

In assay [6] the target is T3, mouse EphA2 on mouse tumor cells (CT26, EMT6, MC38, RENCA) (mouse, UniProt Q03145 26-977).
T3 construct: whole, on cells
T3 sequence (Q03145 26-977): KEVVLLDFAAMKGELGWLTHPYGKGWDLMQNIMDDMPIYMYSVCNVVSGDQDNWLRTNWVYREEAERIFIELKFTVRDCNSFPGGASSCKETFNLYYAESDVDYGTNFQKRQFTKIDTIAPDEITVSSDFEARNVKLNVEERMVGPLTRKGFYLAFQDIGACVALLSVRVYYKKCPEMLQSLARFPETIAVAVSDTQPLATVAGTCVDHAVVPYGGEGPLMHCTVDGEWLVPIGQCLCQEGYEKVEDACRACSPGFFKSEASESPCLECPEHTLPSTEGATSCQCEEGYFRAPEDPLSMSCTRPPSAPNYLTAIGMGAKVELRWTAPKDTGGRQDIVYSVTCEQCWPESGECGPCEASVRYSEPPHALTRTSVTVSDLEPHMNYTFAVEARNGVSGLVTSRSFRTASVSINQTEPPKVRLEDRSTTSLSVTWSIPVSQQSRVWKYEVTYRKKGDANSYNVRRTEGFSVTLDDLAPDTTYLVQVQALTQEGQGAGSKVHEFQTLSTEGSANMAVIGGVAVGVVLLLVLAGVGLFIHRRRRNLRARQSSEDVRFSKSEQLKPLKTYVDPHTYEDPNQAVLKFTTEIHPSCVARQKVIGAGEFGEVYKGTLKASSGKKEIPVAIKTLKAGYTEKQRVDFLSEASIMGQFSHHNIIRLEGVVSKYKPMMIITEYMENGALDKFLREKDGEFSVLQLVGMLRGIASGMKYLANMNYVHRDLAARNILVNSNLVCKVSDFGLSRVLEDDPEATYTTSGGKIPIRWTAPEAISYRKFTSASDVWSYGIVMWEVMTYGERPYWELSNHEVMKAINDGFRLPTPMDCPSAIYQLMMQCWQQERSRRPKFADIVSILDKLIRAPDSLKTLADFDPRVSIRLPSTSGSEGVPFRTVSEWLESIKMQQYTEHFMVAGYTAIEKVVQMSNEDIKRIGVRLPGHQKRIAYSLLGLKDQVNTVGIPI
Description: flow cytometry, surface binding on CT26 cells (in vitro). The procedure: as §1

In assay [7] the target is T4, EphA4_ECD (aa 23-546), full ECD, displayed on yeast (human, UniProt P54764 23-546).
T4 construct: also called EphA4 full ECD; not shown: Aga2 fusion partner followed by an internal HA tag; C-terminal Myc tag
T4 sequence (P54764 23-546): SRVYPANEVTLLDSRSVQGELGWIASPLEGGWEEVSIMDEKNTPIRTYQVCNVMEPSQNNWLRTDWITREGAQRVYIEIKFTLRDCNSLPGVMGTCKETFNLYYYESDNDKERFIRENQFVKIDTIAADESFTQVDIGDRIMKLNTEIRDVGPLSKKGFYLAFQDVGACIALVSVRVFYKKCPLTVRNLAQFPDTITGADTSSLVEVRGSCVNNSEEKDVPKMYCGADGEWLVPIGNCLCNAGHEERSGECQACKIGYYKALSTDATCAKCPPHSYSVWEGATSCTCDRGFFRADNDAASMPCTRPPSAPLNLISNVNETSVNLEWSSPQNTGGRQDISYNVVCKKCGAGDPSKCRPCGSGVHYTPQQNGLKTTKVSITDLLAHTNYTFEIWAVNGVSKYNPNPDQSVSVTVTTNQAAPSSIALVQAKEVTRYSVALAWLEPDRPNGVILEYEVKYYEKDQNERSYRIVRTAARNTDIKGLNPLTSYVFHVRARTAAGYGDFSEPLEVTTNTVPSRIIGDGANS
Description: yeast surface display, flow cytometry titration of AB-008873. As for the experimental part: Yeast cells were cultured in SDCAA (Teknova, S0543) and induced with SGCAA (Teknova, 50542). Cells were stained with pairs of primary and secondary antibodies. […] Chicken IgY anti-cMyc (Life technologies A21281) and Goat anti Chicken IgY FITC (Life technologies A11039) were used to assess expression levels. The analysis was run on the iQue3 flow cytometer. […] The FN2 domain of EphA2 alone is sufficient to mediate binding and expresses at high levels. […] FIG. 6. […] FN2 domain alone also has high relative expression. […] Swapping the FN1 domain from EphA4 into EphA2 enables binding of the epitope (diamond). Binding is lost when the FN2 domain from EphA4 is swapped into EphA2.

T1 sequence (P29317 24-976 limits assumed): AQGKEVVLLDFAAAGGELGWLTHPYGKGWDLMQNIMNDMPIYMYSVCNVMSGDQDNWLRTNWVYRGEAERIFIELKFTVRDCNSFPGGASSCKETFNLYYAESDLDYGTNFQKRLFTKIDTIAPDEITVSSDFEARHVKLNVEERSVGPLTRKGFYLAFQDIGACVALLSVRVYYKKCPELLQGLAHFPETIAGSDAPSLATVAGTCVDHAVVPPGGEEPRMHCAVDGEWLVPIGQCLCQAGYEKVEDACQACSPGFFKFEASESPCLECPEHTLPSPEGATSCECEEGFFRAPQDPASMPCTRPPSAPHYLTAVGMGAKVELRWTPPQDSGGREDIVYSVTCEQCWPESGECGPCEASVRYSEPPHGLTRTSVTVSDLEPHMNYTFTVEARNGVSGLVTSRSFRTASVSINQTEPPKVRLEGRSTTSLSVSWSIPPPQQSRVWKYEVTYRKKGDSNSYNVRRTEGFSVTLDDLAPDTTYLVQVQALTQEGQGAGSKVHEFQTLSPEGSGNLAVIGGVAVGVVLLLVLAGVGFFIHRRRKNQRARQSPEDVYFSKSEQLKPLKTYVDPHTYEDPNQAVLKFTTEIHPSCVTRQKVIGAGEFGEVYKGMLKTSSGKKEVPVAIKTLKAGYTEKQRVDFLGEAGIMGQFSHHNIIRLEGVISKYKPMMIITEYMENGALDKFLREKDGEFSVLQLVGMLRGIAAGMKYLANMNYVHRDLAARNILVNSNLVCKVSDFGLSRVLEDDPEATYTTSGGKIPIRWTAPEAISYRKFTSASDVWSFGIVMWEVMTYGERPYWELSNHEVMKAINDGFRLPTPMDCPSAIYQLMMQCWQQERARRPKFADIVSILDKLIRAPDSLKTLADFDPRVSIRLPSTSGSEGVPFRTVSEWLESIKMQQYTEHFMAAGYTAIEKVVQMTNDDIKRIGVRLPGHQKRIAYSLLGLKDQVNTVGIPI
EphA4 (homologous receptor, screening at Integral Molecular), sequence (P54764 20-986 limits assumed): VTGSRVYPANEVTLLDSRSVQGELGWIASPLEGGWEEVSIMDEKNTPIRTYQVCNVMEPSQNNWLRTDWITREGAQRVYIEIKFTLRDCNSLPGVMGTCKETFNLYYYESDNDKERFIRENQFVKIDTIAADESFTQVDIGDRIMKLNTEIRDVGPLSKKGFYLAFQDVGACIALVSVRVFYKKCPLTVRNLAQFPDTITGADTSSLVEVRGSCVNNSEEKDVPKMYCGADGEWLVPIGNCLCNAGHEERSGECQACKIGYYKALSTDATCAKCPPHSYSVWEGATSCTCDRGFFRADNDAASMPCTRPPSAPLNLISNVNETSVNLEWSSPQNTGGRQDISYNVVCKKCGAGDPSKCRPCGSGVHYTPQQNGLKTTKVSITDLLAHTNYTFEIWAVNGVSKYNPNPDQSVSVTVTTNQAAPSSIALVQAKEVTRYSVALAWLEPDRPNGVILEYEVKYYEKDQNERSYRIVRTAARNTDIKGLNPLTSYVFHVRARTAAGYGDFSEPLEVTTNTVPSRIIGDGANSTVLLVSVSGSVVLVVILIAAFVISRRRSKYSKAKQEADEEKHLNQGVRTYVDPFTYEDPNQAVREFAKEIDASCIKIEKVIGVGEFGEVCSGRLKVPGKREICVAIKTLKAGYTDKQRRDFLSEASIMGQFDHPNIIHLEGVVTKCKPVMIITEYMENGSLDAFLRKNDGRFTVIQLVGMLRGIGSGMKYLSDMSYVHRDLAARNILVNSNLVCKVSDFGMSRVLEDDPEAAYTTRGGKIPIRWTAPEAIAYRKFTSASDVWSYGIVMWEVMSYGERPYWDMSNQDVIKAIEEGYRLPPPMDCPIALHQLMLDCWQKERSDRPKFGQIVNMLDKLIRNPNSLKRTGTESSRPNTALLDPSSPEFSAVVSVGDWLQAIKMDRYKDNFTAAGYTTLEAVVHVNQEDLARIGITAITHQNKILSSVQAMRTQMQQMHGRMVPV
T2 sequence (P12314 16-374): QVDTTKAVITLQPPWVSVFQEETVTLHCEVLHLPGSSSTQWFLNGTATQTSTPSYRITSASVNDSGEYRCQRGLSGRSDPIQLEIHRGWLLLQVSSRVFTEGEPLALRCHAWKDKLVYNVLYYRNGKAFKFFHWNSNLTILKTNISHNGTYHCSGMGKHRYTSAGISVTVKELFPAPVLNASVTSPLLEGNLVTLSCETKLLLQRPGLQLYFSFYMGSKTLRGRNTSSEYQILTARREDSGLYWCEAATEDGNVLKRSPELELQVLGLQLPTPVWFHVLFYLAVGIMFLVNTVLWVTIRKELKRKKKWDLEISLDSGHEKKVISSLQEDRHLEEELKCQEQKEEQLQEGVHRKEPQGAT

B1: AB-009806 (antibody, mouse IgG2a, V domains shown)
VH: QVQLQQWGAGLLKPSETLSLTCAVYGGSFSDYYWSWIRQPPGKGLEWIGEINHSGSTNYNPSLKSRVTISVDPSKNQFSLKLTSVTAADTAVYYCAKPFRPHCTNGVCYSGDAFDIWGQGTMVTVSS
VL: SYVLTQPPSVSVAPGQTARITCGGNNIGTKNVHWYQQKPGQAPVLVVYDDSDRPSGIPEQFSGSNSGNTATLTISRVEAGDEADYYCQVWDSSSDHLVFGGGTKLTVL
Broadly, the EC50 (read off the curve) is the concentration that produces a half-maximal response. A higher EC50 (read off the curve) goes with a less potent agent. Take B1: the “EC50 (read off the curve)” value in assay [1] was about 20 nM. Further, the “Flow Delta activity (MedFI)” value in assay [2] amounted to 231000 MedFI.

B2: AB-009817 (antibody, mouse IgG2a, V domains shown)
VH: QVQLQQWGAGLLKPSETLSLTCAVYGGSFSDYYWSWIRQPPGKGLEWIGEVNHRGSINYNNYNPSLKSRVTISVDPSKNQFSLKLTSVTAADTAVYYCAKPLRPHCTNAVCYSGDAFDIWGQGTMVTVAS
VL: SYVLTQPPSVSVAPGQTARITCGGNNIGSKNVHWYQQKPGQAPVLVVYDDSDRPSGIPEQFSGSNSGNTATLTISRVEAGDEADYYCQVWDSSSDHLVFGGGTKLTVL
Turning to B2, the binding result in assay [3] is on record as “no binding”. Also, in assay [4], the “Delta (flow)” value worked out at 0.

B3: AB-008873 (mouse IgG2a format) (antibody)
heavy: QVQLQQWGAGLLKPSETLSLTCAVYGGSFSDYYWSWIRQPPGKGLEWIGEVNHRGSINYNNYNPSLKSRVTISVDPSKNQFSLKLTSVTAADTAVYYCAKPLRPHCTNGVCYSGDAFDIWGQGTMVTVASAKTTAPSVYPLAPVCGDTTGSSVTLGCLVKGYFPEPVTLTWNSGSLSSGVHTFPAVLQSDLYTLSSSVTVTSSTWPSQSITCNVAHPASSTKVDKKIEPRGPTIKPCPPCKCPAPNLLGGPSVFIFPPKIKDVLMISLSPIVTCVVVDVSEDDPDVQISWFVNNVEVHTAQTQTHREDYNSTLRVVSALPIQHQDWMSGKEFKCKVNNKDLPAPIERTISKPKGSVRAPQVYVLPPPEEEMTKKQVTLTCMVTDFMPEDIYVEWTNNGKTELNYKNTEPVLDSDGSYFMYSKLRVEKKNWVERNSYSCSVVHEGLHNHHTTKSFSRTPG
light: SYVLTQPPSVSVAPGQTARITCGGNNIGSKNVHWYQQKPGQAPVLVVYDDSDRPSGIPEQFSGSNSGNTATLTISRVEAGDEADYYCQVWDSSSDHLVFGGGTKLTVLGQPKSSPSVTLFPPSSEELETNKATLVCTITDFYPGVVTVDWKVDGTPVTQGMETTQPSKQSNNKYMASSYLTLTARAWERHSSYSCQVTHEGHTVEKSLSRADCS
With B3, the binding result in assay [5] is “no binding”; with FcGR1 it was “binds”; in assay [7], “no binding (tested: about 300 nM)”. In addition, the “fold over isotype control (MedFI)” value in assay [6] was 16 fold.

Source of the values: patent US20250051464A1 (IMMUNOME, published 2025).
